Reference: patent US20060088531A1 (CAMBRIDGE ENTERPRISE, published 2006)

Assays:
hD1D2-CaM [1] = molecular target: T1, hD1D2-CaM (human, UniProt Q9HCN6 21-205; P0DP23 2-149, limits assumed); experiment: resonant mirror biosensor, from response ratio against ratio of molecular masses
T1 construct: Residues are counted on mature GPVI, not on the precursor; also called rGPVI; recombinant GPVI
Protocol: Binding studies and affinity measurements were conducted using a resonant mirror biosensor (Iasys, Thermolabsystems, Cambridge, UK). Using this system, one protein (the ligand) was immobilised to the mirrored surface of the cell of a cuvette. The cell contains a stirred volume of buffer to which aliquots of a second protein (the ligate) are then added. If the ligate binds or dissociates from the immobilised ligand, these changes are detected optically and give a reading in arc.sec−1 in real time. […] Here, BSA-N9A was covalently immobilised to a carboxymethyldextran surface using the manufacturer's instructions. The machine was then primed with TBS-TCa. A stirring speed of 100, cuvette temperature of 25° C. and reaction volume per cell of 50 μl were used in all experiments unless otherwise indicated. […] Several washes with TBS-TCa were made to remove unbound material from the cell. Then typically the wells were filled with 45 μl buffer to which was added further volumes of purified scFv (e.g. 5 μl) in HBS. The binding of scFv was measured in arc.sec⁻¹. The binding curves were analysed either by recording response at equilibrium versus time (for epitope mapping studies) or by calculating the initial rates of binding at different scFv concentrations using FastFit software (for affinity measurements).
ScFvs were added sequentially to saturation, without washing. […]

hD1-CaM = molecular target: T2, hD1-CaM (human, UniProt Q9HCN6 21-109; P0DP23 2-149, limits assumed); experiment: screening ELISA
T2 construct: Residues counted on mature GPVI; also called isolated hD1

hD1D2-CaM [2] = molecular target: T1, hD1D2-CaM; experiment: resonant mirror biosensor, Cell 1
Protocol: Here, BSA-N9A was covalently immobilised to a carboxymethyldextran surface using the manufacturer's instructions. The machine was then primed with TBS-TCa. A stirring speed of 100, cuvette temperature of 25° C. and reaction volume per cell of 50 μl were used in all experiments unless otherwise indicated. […] Several washes with TBS-TCa were made to remove unbound material from the cell. Then typically the wells were filled with 45 μl buffer to which was added further volumes of purified scFv (e.g. 5 μl) in HBS. The binding of scFv was measured in arc.sec⁻¹. The binding curves were analysed either by recording response at equilibrium versus time (for epitope mapping studies) or by calculating the initial rates of binding at different scFv concentrations using FastFit software (for affinity measurements).
Each scFv was then allowed to bind to saturation.

mD1D2-CaM = molecular target: T3, mD1D2-CaM (murine, UniProt P0C191 22-206; P0DP23 2-149, limits assumed); experiment: capture ELISA, purified scFv
T3 construct: Residues counted from Q1 (mature protein); also called murine D1D2; mouse D1D2-CaM

B1: scFv 1C3 (scFv, V domains shown)
VH: QVQLQQSGAEVKKPGESLKISCQASGYSFSSYWIAWVRQMPGKGLELMGIIYPGDSDARYSPSFQGQVTFSADKSINTAYLQWSSLKASDTAMYYCARQGKTGSYYFGAFDVWGQGTMVTVSS
VL: QSVLTQPPSMSAAPGQKVTISCTGTSSDVGGYNYVSWYQQHPGKAPKLMLFEVSHRPSGVSNRFSGSKSDNTASLTISGLQAEDEADYYCSSYTGSSTWVFGGGTKVTVL
notes: Human scFv from the Marks library; also called 1C3 scFv
hD1D2-CaM [1]
  binding ratio (scFv to hD1D2): 1
hD1-CaM
  binding result: no binding
hD1D2-CaM [2]
  ratio of responses 1C3: D1D2-CaM: 0.63

B2: scFv 10B12 (scFv, V domains shown)
VH: EVQLVQSGGGVVQPGGSLRLSCAASGFTFSSYGMHWVRQAPGKGLEWVAFIRYDGSNKYYADSVKGRFTISRDNSKNTLYLQMNSLRAEDTAVYYCTDGWAEMATTDDAFDIWGRGTMVTV
VL: DIQMTQSPSTLSASIGDRVTITCRASEGIYHWLAWYQQKPGKAPKLLIYKASSLASGAPSRFSGSGSGTDFTLTISSLQPDDFATYYCQQYSNYPLTFGGGTKLEIK
notes: Human scFv from the CaT (Vaughan) library; also called 10B12 scFv
mD1D2-CaM
  binding result: no binding (tested: 10 µg/ml)
hD1D2-CaM [1]
  binding ratio (scFv to hD1D2): 1
hD1D2-CaM [2]
  ratio of responses 10B12: D1D2-CaM: 0.61
